Test results as given in a protein production outcome set (Wang et al. 2014).

Test: label from the status in PepcDB records

## MRFNYPPDGVSQLIASRWKIGVALALAVLLFFAFLVLLPLADGIVLGIVFAYIARPIQVKFGKYRKIGALIASLFIFIPIVFIVGAGVVEILNQISWIFENQTSVMSGILDFIHGLEIPSTYVERINNAIWNLFTSLLPAVGSVGLISYAQSIGLFVINFIVSIFFCYFLLADGDRLYCAFIGMIPSDYQNIVNRYASHLDLILKGVFIGNAYSALIVSVTSVFVFRAFGFSHVLALATLVFIASVIPLFAGYMVLVPMALFRYFEQGFQSAALFFVVSSLVIYGPPELILRPFLTSLKSKIHPMLLMLAFLGGAFVGGIAGFFAAPILLGALVAAYRVYQEQIHPELVAQADVYLKDPAKACRTDEKNSFQ
  protein production: failed

## MGSSHHHHHHSSGLVIRGSHMRIALMQHTARPLDPQHNLDLIDDAAARASEQGAQLLLTPELFGFGYVPSQICAQVSAEQVDAARSRLRGIARDRGIALVWSLPGPEGPEQRGITAELADEHGEVLASYQKVQLYGPEEKAAFVPGEQPPPVLSWGGRQLSLLVCYDVEFPEMVRAAAARGAQLVLVPTALAGDETSVPGILLPARAVENGITLAYANHCGPEGGLVFDGGSVVVGPAGQPLGELGVEPGLLVVDLPDQSQDAGSDSADYLQDRRAELHRNWL
  protein production: not failed

## NTLRELRLFLRDVTKRLATDKRFNIFSKPVSDYLEVIKEPMDLSTVITKIDKHNYLTAKDFLKDIDLICSNALEYNPDKDPGDKIIRHRACTLKDTAHAIIAAELDPEFNKLCEEIKE
  protein production: not failed

## MENVKKCKNFLSTLIKLASSGKQSTETAANVKELVQNLLDGKIEAEDFTSRLYRELNSSPQPYLVPFLKRSLPALRQLTPDSAAFI
  protein production: failed

## MERLKLYFSYFKNKILKKYESKKAQSVIDTEEIKEEIWEADFSKKEKARFIEETGDGYQSLFEENLDGKHSYSLELKRKHLYAWALNPLFRYKDFVLDAEIELPVFTDNFFPEENTSAGYCAAGFVFRHISDKAFYSLLISDKGWIRLEAVVNSTPMPILGWTKPLTDIDSSKFKIKLICAGTSITVLVNNTWLGKFESDIVQAAGKIGFAGQNWETYPKVKFYLNEFKIISQPLLVENTDSAANNPDAISPEAYINLASTYYAMGQYVAAIYQIKQAWKLREPGIQDHILAGRIYFAQHLNEEAEKEFLHALDIEHDNYEIMAELAGLYYQSGNMKKLGDILKDIPNDEIEKSVLLCSLKGHFLNSQGKHEKSAAFYAKAFELKPDQGLLKYNEANELNLAGKTAEAVEAYTEAGKLFLASEEYNEMANVINALERIAPEDERTWALSGKFYYAVDNKWEAKLNFKKLCDAKTSDSTIWYLYGLLIHDEKPEEAVKFFKKACKLGPEHGLYHFRLAEALYLIGEDCSVPLSEAEALEPNNGWIFNLKALCAIDEDAFFDAQIEIEKARKMLPDEIVILENYVEIMRLQGRLKECAPLFDIEAGTADLAAERNRAEAFHIYANALFFDEQYDEADIWYQKALKLKPVDPVLLTDKAENSIKIGYLNDADGLLVKAMDIEPTERIYRLISLLAVKKGDHARAEVSLRQAIEEFGESEELLFDLTNLYIQTNRKEKAKETIKLLTNCEDQERLKELKALLKK
  protein production: failed

## MPFVLRCLLCCTLFVLGGCAAHEAPLAPVNPMGLSGNVAPEAEKNYALARVLWGNSEVCSDPVQAVAYLDRAIAVQPDYAAAYQRRGLAYSEMGRYEEAFEDLTKALRLKPGVEAYTYRGLVSMRMGNLIGARKDLDHALELDSGYHRAWNFRAAVRLQQDDTAGACADFAKGCSKGDCTGMESARESGICK
  protein production: failed

## MDFFTDQVKKKFSDKKPESSDPEPNHNKNKPGHTEPTTHKPGHGEPTTHKPVSNTDPTTHRPATNAELMASAKIVAEAAQAAARHESDKLDKAKVAGATADILDAASRYGKLDEKSGVGQYLEKAEQYLHKYETSHSHSSTGGTGSHGNVGGHGGGAGAPAAKKEDEKSGGGHGFGDYAKMAQGFMK
  protein production: failed

## MPEQDVPRVRLFGAHELKISDIFDEKKDIYYVPIFQGKDDVNKLHQSAYTGKNTKCAILDSGVLTDHPYLKDRMDAIEDFTGHGFQDREGHGTAVALNLAMTAPDASILIGKVYENDDVPLSEYINRIARGVNWAIDSGARIINLSVGMEKRKEDISNYPGCSEAVKNVCKAITQAIENGISVLVAAGANFPADCHESIIVVGLPGNPVYPKDVHPTVYSPFSPILVPTFLFEGYAHLKMGMYEQALALFKQAADLHPEDHQLWKYQALCRYGLKKYNDAILSFDKALAIKQSDVKTWYLKGITLLALTQNDKAIECFDEVLKLVNNAGLTGMKLTEFSNSISDDWYNMGVYYEQASRYDEAANCYDKAIRIDPLNAKAWNNRGVILAIEEKYEDSIKYFEVATELKPSMVDAWFNKGLALSRIGKYEESIEFFDKAIAIDPASNKALKERIRVSGKLKSKEE
  protein production: failed

## MLRRIVALAAVAAGGMMLSKTFRKSRDSGYTSSVENFIEVNVPVSTAYNQWTQFEEFPRFMKGVREVQQIDDTHLHWRAEIAGKEEEWDAEITEQVPDQRIAWHSTNGAKNSGVVSFYGISDSKTRVVLKMDYGPRTFLEGLGDALGAVKARTSEDLRCFKEFLESRGKETGAWRGSVGQH
  protein production: failed

## MSDPAIAVLPYGMKLGPALSGLPLDQVNWPLGCPERLVGKTLGDLGAGDHLLVYPRTGTHFQLSRGTRARISLIMAEPAVIHAKHYALLRVTWRRFHRVLTFNQAAVDRLPNARLLLFGSTWVPEWQSLTPEKVAQCSLIASAKRDSTGHKLRHAVVDWVRASDQDVAVLGRGYQPFDSKADGLAPYRYSVVIENVQERNYFSEKLLDAVFCETVPIYWGCPNIADFVDTTAMILCTREEDIRRAVAEMSAEDYAARLPALRALKQQLAPYAAHEARAARMILDELLEHHHHHH
  protein production: not failed

## MLLFEQPVDLEKNNEDDTNIKPFAISRHFLLKLLLCGIILIELLLYSKCPKPIDNGPRTIANRSNTYFNGTHDFKTLTILISIDGFHPRLIDAKYTPFLYNLHNLRSPYDMNITTAPYMIPSFPTQTFPNHWSMVTGKYPIEHGIVSNIFWDNFTSSEFRPNNLDARIWSNTADPIWQLLQTESQGEYKVATHMWPGSEVVYEDHGDVPRERMPFYFGKFNQWEKLQDKLAQIFRYIDMPQLKDRPELVISYIPNVDSYGHSFGYDLRDKRLQKLIGEVDGFFLDLIEGLQKRNLLKISNVMIVSDHGMSNVNANDGEHVVVWERVFPADAMSAFISHLYNEGPMMMVCLKNPRDKQWICDLIEAQLEKAYGDEISRKFHVILKEDFDPSWKYFQYDNRKHRYDDRVGDIWILADEYYAIVKEMGDVPIGIMGTHGYNFNNCSDMASIFIGMGPMFNNEVVPPFENIEVYNMLIKASALLGEEKTKKEKSLLQ
  protein production: failed

## MQFRSIIRIVGLLLALFSVTMLAPALVALLYRDGAGVPFVTTFFVLLFCGAMCWFPNRRHKHELKSRDGFLIVVLFWTVLGSAGSLPFLIADNPNISVTDAFFESFSALTTTGATVIVGLDELPKAILFYRQFLQWFGGMGIIVLAVAILPVLGIGGMQLYRAEIPGPVKDTKMTPRIAETAKALWYIYLSLTIACAVAFWLAGMTPFDAISHSFSTIAIGGFSTHDASMGYFDSYAINLITVVFLLISACNFTLHFAAFASGGVHPKYYWKDPEFRAFIFIQVLLFLVCFLLLLKHHSYTSPYDAFDQALFQTVSISTTAGFTTTGFADWPLFLPVLLLFSSFIGGCAGSTGGGMKVIRILLLTLQGARELKRLVHPRAVYTIKVGGSALPQRVVDAVWGFFSAYALVFVVCMLGLIATGMDELSAFSAVAATLNNLGPGLGEVALHFGDVNDKAKWVLIVSMLFGRLEIFTLLILLTPTFWRS
  protein production: not failed

## MLARRIVAKHVTKTTALAMLGTTIVLVILQVLFTYLGELSNLKADYSAWQAFLYVLWGAPRYLYEILPISALIGAILGLGTLASNSELIVMRSVGISLWRIVGWVIRSALVLVLLSFALSEWVVPYTNERANSVKSHQSVAALGEVRGYWSREGQRFIYVDYANSQGQLKRIQVVDFDDNYRLKSVTNAEQGQFVKDGQWLLNHSQQMAIQGQGDAVLANAAKQPFSLALQPKYVHMVTIDPEDLSFSQLVSFMNYMREYSQVPKTYQLAFWKKVASPFALITLVLVACSFIFGPLRQQSMGFRLVIALFIGLGFYYLQDFLGYASLVYNPSPAWFVLGPIVLMFVAGSYLLYRAR
  protein production: failed

## DLEFQKGVEQILNQYFNSELASGNTKYSEGVYAVVLNPNTGAVLSMAGLEHDLKTGEVSSNALGAVTEVFTPGSVVKGATLTAGWENGVLSGNQVLNDQPIQFAGSSPINSWFTNGSTPLTASQSLEYSSNTYMVQLALKLMGQDYHSGMTLSTDGYKEAMEKLRATYAQYGLGVSTGIDLPGESKGYTPEHYDPSNVLTESFGQFDNYTAMQLAQYAAAVANGGKRIAPHLVEGIYDNNKTGGLGNLVQSIDTKVLNNVSISSDDMGIIKEGFYNVVNGGSYATGKTLAKGASVPISAKTGTAEAYVTGDDGKSVYTSNLNVVAYAPSSNPQIAVAVVLPHETDLHGTTSHAITRDIINLYQKMYPMNQ
  protein production: failed

## MDFSLTEEQELLLASIRELITSNFPEEYFRTCDQTGTYPKEFMQALAENGISMLGVPEEFGGIPADYVTQMLALMEISKCGAPAFLITNGQCIHSMRRFGSAEQLRKTAESTLATGDPAYALALTEPGAGSDNNSATTTWTRKNGKVYLNGQKTFITGAKEYPYMLVLARDTEPKDPKKAFTLWWVDSNKPGIKINPLHKIGWHMLSTCEVYLDNVEVDESDRVGEEGMGFLNVMYNFEMERLINAARSTGFAECAFEDAARYANQRIAFGKPIGHNQMIQEKLALMAIKIENMRNMVLKVAWQADREESLRTSAALAKLYCARTAMEVIDDAIQIMGGLGYTDEARVSRFWRDVRCERIGGGTDEIMIYVAGRQILKDYQNK
  protein production: failed

## KQFPGYPEFVLVEIETQRGCPKAMGIGGCSFCTEPVRYKVVENRPQEYVAQEVETFYNMGIRHFRIGRQSCIFSYKARPNGRVPIPKPEEVEKLFKAVRLAAPNVKTLHVDNANPAVIANYPEESRRIAKAIIEYGTPGNVVAFGLETADPKVARINNLNATPEETYEAVKIINEVGGRRGYNGLPWLLPGINIIFGLPGETKRTYELTYEFLKKILDDGLMVRRINIRQVVVFPGTPLWNMRDKVKTEKHKALIEHYRHKIRHEIDLPMLKRVVPVG
  protein production: failed

## MYKKLILLFFILITFNLFSDEDVLVFYSQPSSIASKFVTGILQDSYGRIWFGTKEGLAYYDGIKYKNYEYIPFSKDSIQSSQIQCLYNDPRKAENGSDVFWIGTFYGVERFNVDTETFTHFDMTSSVVLCFLRDSHGRLWIGTLDGLYILNEDDGSVVKFSQASEFYIGNNGISHIYEDSEGRIYACTHEGLWEYDEPNKRFRRSRLFEKNSAVTDSIINNIFEEDGIYWVSVWDTGLFRIDPKNGKRDLFSFSNNKITCLSNEFSDNVLLIGTWGGGLISFDKNTYSYTEYTSKQRSYNLSNDFIFSIYVDTYGSLWVGTNGGGVNIYDTKRMWSKLILPHENKIDGRENSVSGLTKDKNGNLWISLLNNGITYYDLSTGKKKYYRYSESKIISNSVFKFYIDKNEDIWVGTDLGLCKYDKKKDAFVGVNLYNDNIIEDGERLIYNIISDDNEFLWIGTYDGGLIKFSPSSGILKRYKNDPKNPNSICSNLVFSLLIDSYKRLWVGTNKGLAEYKPSTDEFAIYRYDVNNRKGISSDRITSLFQDVSGKLWIGTSDGGINIFDTEKKEALNYTANEGLPANFIIGMTHMDNHSICVTAIKGMTIFNKDTEIIYSYTLYNHERRFTTVPIMIGDQCFVGTQEGVLGMDINYLLSFKRQEVPVKIRTIGINGNQTPVFKIDLQKTYKYKYSENNISFEFSSMDLSPLSRPSYIFMLEGFDKNWINANMKNYVQYTNLKPGKYTFKVKDISNPYPEPTSFTFIIEKPFWLSTPMIAVYILIFAGLTFLACRINRLFQYKIANKKLQQEQKDLISANEQLTVLSTVDELTGVGNRRQLDTVGKDLWRRGLDNKQPISLIMIDIDLFKQYNDLYGHQAGDNVLRTVAQTLQKKLRAKYDFVGRYGGEEFLVLLYNSSASETMKIAEKLRIEIKNLNIEHSAEKDKILTISLGAYTSVPNNELSYETMLSFADSALYKAKESGRDICKMYTE
  protein production: failed
